Measured values: paper PMC11229320, “Dynamics of the Herpes simplex virus DNA polymerase holoenzyme during DNA synthesis and proof-reading revealed by Cryo-EM”
Residue numbers refer to the chain shown, from its start.

Tests used:
[1] = target: T1, UL30 DNA polymerase catalytic subunit;UL42 processivity factor (Herpes simplex virus 1 (HHV-1);Herpes …, UniProt P04293;P10226 1-1235;1-488, |); assay: cryo-EM; halted elongation state, dATP in dNTP pocket; 1 mM dATP/dGTP/dTTP/ddCTP mix; Cryo-EM complex buffer not given in material; protein purified in 20 mM HEPES pH 7.8, 400 mM NaCl, 1.5 mM MgCl2, 1 mM DTT, 5% glycerol; settings: protein: recombinant;recombinant; copies: 1;1; 5' overhang 14 nt on template after extension (22 nt before)
T1 sequence (P04293 whole entry, chain 1 of 2): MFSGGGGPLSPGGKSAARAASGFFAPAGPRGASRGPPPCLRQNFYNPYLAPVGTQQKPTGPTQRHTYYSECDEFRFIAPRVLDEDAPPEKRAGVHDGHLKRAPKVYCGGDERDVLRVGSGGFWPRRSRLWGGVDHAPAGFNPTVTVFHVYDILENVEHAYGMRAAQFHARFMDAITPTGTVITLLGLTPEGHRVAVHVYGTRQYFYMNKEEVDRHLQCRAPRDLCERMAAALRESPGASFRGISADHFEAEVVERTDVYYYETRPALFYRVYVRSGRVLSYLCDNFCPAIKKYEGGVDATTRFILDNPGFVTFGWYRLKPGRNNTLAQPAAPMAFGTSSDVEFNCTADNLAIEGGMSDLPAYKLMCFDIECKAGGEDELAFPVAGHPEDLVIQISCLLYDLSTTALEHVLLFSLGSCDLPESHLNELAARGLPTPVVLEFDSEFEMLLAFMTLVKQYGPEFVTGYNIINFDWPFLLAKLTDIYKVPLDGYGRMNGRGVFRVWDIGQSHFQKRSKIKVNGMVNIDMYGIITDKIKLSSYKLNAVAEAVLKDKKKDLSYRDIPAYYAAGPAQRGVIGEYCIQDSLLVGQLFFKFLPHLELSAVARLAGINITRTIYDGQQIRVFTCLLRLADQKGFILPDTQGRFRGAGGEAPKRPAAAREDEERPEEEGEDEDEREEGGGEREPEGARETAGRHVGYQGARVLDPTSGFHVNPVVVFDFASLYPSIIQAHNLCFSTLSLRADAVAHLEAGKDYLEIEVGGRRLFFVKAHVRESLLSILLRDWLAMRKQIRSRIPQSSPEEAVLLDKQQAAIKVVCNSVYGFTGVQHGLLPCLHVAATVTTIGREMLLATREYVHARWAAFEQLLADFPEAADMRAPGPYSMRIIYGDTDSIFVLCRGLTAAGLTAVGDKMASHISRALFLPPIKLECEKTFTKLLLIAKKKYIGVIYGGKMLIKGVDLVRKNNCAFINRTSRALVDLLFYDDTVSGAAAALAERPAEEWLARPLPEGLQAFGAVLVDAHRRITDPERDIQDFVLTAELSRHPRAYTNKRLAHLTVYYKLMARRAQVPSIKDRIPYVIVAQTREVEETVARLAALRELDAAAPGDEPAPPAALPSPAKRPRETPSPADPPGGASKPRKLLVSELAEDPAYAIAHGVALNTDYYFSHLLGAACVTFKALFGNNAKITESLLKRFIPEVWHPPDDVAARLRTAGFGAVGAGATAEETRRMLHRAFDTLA
T1 sequence (P10226 whole entry, chain 2 of 2): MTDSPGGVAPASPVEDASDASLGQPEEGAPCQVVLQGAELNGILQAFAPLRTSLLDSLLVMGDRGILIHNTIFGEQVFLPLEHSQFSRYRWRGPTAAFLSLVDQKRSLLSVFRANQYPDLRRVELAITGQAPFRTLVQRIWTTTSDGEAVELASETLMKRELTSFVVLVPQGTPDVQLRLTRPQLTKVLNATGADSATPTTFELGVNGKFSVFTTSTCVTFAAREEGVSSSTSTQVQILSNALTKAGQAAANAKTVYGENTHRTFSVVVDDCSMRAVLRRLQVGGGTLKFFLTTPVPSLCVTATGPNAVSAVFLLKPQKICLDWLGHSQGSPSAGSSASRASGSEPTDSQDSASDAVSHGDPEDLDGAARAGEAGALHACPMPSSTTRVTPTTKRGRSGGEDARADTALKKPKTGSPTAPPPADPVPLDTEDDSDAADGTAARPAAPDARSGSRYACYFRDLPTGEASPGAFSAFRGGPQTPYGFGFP

[2] = target: T1, UL30 DNA polymerase catalytic …; assay: cryo-EM; DNA editing (exonuclease) state; also 9ENQ (active site); Cryo-EM complex buffer not given in material; protein purified in 20 mM HEPES pH 7.8, 400 mM NaCl, 1.5 mM MgCl2, 1 mM DTT, 5% glycerol; settings: protein: recombinant;recombinant; copies: 1;1; 5' overhang 21 nt on template; 1 mismatch (A/G) at primer 3' end
[3] = target: T1, UL30 DNA polymerase catalytic …; assay: cryo-EM; pre-translocation state, open fingers; 2.4 A; Cryo-EM complex buffer not given in material; protein purified in 20 mM HEPES pH 7.8, 400 mM NaCl, 1.5 mM MgCl2, 1 mM DTT, 5% glycerol; settings: protein: recombinant;recombinant; copies: 1;1; 5' overhang 26 nt on template (22 bp)
[4] = target: T1, UL30 DNA polymerase catalytic …; assay: cryo-EM; DNA editing (exonuclease) state; also 8OJB, 8OJC (active site classes), 8OJD (beta-hairpin loop); Cryo-EM complex buffer not given in material; protein purified in 20 mM HEPES pH 7.8, 400 mM NaCl, 1.5 mM MgCl2, 1 mM DTT, 5% glycerol; settings: protein: recombinant;recombinant; copies: 1;1; 5' overhang 21 nt on template; 2 mismatches (A/G) at primer 3' end

B1: halted elongation primer-template (ddC-terminated) (dsDNA)
DNA 1: ATTTGCTGACCTTTGTTCTAATTGAGTTGGTTGGACGGCTGCGAGGCGATCAAGGTGTCGTAGTGGC
DNA 2: GCCACTACGACACCTTGATCGCCTCGCAGCCGTCCAACCAACTCAATTAGAAC
modifications: 3'-terminal ddC on primer, added in situ: printed primer S5 extended with dATP, dGTP, dTTP, ddCTP to first template G
B1: binds [1].

B2: 1-bp mismatch exonuclease primer-template (dsDNA)
DNA 1: B1 DNA 1 with A20G, A21G, T22G
DNA 2: GCCACTACGACACCTTGATCGCCTCGCAGCCGTCCAACCAACTCAA
modifications: * before each of the last two A of primer (phosphorothioate?; not defined in material)
B2: binds [2].

B3: pre-translocation primer-template (dsDNA)
DNA 1: CGAAAGTACGTTATTGCGACTGGCCGTCGCTCTACAACGTCGTGACTG
DNA 2: CAGTCACGACGTTGTAGAGCGA
B3: binds [3].

B4: 2-bp mismatch exonuclease primer-template (dsDNA)
DNA 1: ATTTGCTGACCTTTGTTCTGGGGTGAGTTGGTTGGACGGCTGCGAGGCGATCAAGGTGTCGTAGTGGC
DNA 2: GCCACTACGACACCTTGATCGCCTCGCAGCCGTCCAACCAACTCAAA
modifications: * before each of the last two A of primer (phosphorothioate?; not defined in material)
B4: binds [4].
